One assay deals with T1, GRIP1 (Mus musculus, UniProt Q61026).
T1 construct: expressed in transfected cells; host or cells: Cos-7
In words: Whole cell co-immunoprecipitation in Cos-7 cells: HA-GRIP1. The settings on record: EtOH ± 1 μM Dex, 2 hr. The class given is binding. The protocol:
FIG. 7C1-3 illustrate whole cell co-immunoprecipitation of STAMP, GR, and TIF2/GRIP1. Cos-7 cells that had been co-transfected with Flag/STAMP (or Flag itself), HA/GRIP1, and GR plasmids (10 μg of each/150 mm dish) for 48 hr were treated for 2 hr with EtOH±1 μM Dex before being lysed as described in Example 1. Lysate was either analyzed on SDS-PAGE gels or treated with anti-Flag antibody to immunoprecipitate Flag/STAMP. The pellets were separated on SDS-PAGE gels and Western blotted with anti-Flag (FIG. 7C1), anti-HA (FIG. 7C2), or anti-GR antibodies (FIG. 7C3). In each panel, lane 1=5.7% of input lysate, lane 2=IP pellet of Flag/STAMP, HA/GRIP1, and GR+EtOH, lane 3=IP pellet of Flag/STAMP, HA/GRIP1, and GR+Dex, and lane 4=control IP pellet of Flag, HA/GRIP1, and GR+EtOH. Similar results were obtained in a second experiment.
Immunoprecipitations were conducted as generally described in Wang et al. (2004) Mol. Endocrinol. 18: 1476-95, with slight modifications. The day before transfection, Cos-7 cells were seeded into 150 mm dishes at 200,000 cells per dish containing 20 ml of media. On the next day, about 30 μg of DNA/dish was transfected with 60 μl of FuGene reagent. […]

For the next assay, the target named is T2, CBP (Homo sapiens, UniProt Q92793).
T2 construct: expressed in transfected cells; host or cells: CV-1 (the same two-hybrid assay)
T2 sequence (Q92793 whole entry): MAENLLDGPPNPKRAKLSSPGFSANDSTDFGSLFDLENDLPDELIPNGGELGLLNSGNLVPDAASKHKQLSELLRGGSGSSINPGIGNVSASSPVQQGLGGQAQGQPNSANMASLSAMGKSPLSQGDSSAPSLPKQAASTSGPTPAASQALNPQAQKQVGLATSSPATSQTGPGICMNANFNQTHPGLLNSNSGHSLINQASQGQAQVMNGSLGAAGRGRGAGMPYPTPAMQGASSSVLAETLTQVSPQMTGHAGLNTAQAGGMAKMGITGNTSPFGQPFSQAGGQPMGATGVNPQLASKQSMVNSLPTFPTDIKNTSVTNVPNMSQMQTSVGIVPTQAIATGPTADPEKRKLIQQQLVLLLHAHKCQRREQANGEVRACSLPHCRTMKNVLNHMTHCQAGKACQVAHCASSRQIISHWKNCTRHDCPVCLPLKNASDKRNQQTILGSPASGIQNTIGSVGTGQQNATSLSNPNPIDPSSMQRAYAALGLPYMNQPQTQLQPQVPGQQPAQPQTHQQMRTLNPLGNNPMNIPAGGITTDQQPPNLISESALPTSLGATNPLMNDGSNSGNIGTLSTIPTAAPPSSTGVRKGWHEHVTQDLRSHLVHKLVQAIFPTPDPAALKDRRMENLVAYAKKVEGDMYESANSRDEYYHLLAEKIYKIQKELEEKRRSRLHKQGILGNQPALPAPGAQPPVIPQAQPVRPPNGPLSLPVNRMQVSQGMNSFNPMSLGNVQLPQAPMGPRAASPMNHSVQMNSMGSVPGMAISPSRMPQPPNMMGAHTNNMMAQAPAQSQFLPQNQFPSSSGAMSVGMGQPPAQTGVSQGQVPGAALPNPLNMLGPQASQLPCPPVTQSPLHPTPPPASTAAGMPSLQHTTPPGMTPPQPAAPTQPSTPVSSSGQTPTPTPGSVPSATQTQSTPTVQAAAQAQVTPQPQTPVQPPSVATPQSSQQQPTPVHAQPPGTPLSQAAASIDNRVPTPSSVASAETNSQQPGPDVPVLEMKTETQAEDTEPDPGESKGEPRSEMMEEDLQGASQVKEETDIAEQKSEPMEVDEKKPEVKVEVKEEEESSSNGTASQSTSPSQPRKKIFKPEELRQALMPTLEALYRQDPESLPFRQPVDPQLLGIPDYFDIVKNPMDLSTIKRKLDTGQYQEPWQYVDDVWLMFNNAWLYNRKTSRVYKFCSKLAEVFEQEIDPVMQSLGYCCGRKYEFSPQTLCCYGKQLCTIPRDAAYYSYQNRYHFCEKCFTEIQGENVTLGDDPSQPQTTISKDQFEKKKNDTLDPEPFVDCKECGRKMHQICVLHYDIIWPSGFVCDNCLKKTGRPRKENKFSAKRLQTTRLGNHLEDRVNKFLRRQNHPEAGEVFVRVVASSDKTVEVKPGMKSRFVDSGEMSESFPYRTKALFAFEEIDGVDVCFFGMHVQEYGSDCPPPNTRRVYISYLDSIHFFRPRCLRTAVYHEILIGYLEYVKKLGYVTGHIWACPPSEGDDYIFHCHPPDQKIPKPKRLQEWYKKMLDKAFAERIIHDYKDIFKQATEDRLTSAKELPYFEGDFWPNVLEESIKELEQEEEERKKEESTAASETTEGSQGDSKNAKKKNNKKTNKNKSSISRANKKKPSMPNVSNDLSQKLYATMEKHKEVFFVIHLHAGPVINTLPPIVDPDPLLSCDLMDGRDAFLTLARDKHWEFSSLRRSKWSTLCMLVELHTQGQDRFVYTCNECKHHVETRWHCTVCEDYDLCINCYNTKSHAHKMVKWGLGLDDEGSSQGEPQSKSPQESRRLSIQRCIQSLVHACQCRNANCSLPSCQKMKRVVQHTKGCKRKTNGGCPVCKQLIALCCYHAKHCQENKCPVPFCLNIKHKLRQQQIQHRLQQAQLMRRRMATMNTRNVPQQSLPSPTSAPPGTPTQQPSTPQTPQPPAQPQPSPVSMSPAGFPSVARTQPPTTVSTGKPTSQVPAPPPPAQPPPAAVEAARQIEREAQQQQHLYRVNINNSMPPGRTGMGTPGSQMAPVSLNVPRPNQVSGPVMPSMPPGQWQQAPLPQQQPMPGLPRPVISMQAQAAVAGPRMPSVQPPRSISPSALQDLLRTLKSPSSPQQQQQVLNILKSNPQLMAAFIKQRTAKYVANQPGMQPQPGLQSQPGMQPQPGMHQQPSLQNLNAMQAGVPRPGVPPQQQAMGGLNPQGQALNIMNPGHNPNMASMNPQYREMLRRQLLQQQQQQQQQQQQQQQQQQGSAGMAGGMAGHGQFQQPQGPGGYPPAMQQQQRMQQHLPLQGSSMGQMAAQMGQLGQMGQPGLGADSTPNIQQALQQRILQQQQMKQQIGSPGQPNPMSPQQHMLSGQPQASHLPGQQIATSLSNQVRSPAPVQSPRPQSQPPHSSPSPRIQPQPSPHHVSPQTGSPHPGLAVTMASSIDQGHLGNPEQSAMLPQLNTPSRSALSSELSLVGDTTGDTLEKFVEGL
In words: Mammalian two-hybrid assay with CBP. It counts as cell-based. The settings on record: data not shown. The method, then:
These assays were conducted as described (He et al., 2002). In particular, the recommended procedure for the Mammalian Matchmaker two-hybrid assay kit (Clontech) was modified slightly by changing from a chloramphenicol acetyltransferase reporter to a Luciferase Reporter pFRLuc (Stratagene), which is under the control of five repeats of the upstream activating sequence for the binding of GAL4.

For the next assay, the target named is T3, ERα (Homo sapiens, UniProt P03372).
T3 construct: plus VP16 fused to the indicated full length receptors; expressed in transfected cells; host or cells: CV-1
T3 sequence (P03372 1-595): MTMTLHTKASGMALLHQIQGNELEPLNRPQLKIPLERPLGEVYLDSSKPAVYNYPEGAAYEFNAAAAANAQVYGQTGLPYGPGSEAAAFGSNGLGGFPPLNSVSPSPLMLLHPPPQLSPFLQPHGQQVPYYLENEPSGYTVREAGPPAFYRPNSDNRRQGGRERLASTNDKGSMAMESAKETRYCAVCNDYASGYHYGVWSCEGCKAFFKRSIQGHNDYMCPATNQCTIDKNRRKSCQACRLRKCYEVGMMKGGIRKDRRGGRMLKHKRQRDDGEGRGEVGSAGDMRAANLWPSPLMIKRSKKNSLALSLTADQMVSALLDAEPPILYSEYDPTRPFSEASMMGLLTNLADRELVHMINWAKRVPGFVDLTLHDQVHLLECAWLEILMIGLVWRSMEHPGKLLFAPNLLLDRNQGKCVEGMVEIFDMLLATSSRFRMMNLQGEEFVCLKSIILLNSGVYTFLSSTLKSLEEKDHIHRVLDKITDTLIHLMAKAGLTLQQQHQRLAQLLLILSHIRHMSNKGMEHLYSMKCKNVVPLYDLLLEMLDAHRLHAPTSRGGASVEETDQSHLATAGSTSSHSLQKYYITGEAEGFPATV
In words: Mammalian two-hybrid assay with VP16 full length receptor: ERα. The class given is cell-based. The following applies: 1 μM estradiol. The method, then:
FIG. 6C1-3 illustrate the association of STAMP with assorted steroid/nuclear receptors, including glucocorticoid receptors (GRs), progesterone receptors (PRs), androgen receptors (ARs), estrogen receptors (ER α or β), PPARγ2 receptors, thyroid receptor beta (TR), and retinoid (α) receptors (RAR α or RXR α). Triplicate samples of CV-1 cells were transfected (as described for FIG. 6B) with GAL, or GAL fused to TIF2.4 or STAMP834C, plus VP16 fused to the indicated full length receptors and incubated with the appropriate steroid (1 μM Dex, 20 nM R5020, 1 nM R1881, 0.1 μM triiodothyronine, or 1 μM estradiol, roziglitazone, or 9-cis-retinoic acid). The average relative luciferase activities of 2-3 experiments±S.E.M. were then plotted. FIG. 6C1 illustrates the effects of STAMP association upon GR, PR and AR induced expression. FIG. 6C2 illustrates the effects of STAMP association upon ERα, ERβ and PPARγ2 induced expression. FIG. 6C3 illustrates the effects of STAMP association upon TR, RARα and RXRα induced expression.
These assays were conducted as described (He et al., 2002). […]

T1 sequence (Q61026 5-1462 limits assumed, one chain of several): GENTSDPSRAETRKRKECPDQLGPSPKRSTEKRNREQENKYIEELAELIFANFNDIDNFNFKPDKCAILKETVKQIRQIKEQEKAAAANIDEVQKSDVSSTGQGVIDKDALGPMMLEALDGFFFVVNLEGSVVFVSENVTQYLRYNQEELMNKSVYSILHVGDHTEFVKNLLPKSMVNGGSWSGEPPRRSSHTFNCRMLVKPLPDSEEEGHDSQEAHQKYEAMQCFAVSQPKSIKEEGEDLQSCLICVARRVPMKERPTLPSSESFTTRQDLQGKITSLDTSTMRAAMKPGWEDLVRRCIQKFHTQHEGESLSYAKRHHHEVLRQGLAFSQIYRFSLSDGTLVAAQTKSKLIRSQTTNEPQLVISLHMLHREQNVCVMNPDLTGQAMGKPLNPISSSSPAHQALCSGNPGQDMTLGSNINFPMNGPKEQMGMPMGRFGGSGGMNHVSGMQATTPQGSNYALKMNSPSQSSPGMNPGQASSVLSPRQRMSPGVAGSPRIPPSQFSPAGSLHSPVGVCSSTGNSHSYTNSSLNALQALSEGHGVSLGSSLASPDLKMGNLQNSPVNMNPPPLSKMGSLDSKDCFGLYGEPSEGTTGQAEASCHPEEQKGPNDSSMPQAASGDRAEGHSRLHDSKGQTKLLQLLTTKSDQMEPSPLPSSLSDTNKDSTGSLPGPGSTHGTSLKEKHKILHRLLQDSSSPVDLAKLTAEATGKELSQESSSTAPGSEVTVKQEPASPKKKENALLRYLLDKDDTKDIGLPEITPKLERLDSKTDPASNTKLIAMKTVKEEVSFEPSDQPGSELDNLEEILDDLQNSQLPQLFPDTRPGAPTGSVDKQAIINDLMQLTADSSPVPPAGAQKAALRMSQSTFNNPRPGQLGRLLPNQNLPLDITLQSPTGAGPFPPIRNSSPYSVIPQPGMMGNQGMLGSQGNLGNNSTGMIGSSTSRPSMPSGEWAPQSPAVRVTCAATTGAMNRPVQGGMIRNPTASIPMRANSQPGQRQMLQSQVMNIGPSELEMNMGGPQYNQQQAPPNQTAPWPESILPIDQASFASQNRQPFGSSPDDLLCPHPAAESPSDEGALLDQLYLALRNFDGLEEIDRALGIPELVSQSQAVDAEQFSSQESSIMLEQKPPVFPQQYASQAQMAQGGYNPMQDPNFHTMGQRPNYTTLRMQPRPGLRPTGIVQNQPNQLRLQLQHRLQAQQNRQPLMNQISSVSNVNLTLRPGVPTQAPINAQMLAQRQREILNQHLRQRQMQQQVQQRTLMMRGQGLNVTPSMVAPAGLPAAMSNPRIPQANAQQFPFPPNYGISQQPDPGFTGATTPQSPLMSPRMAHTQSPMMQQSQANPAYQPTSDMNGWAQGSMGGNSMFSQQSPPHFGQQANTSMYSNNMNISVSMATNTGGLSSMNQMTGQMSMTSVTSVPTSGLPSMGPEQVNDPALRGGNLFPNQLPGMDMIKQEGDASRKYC

B1: STAMP: SRC-1 and TIF2 Associated Modulatory Protein, 1277 amino acid human polypeptide, expressed from transfected plasmid (protein)
chain: MARDLEETASSSEDEEVISQEDHPCIMWTGGCRRIPVLVFHADAILTKDNNIRVIGERYHLSYKIVRTDSRLVRSILTAHGFHEVHPSSTDYNLMWTGSHLKPFLLRTLSEAQKVNHFPRSYELTRKDRLYKNIIRMQHTHGFKVFHILPQTFLLPAEYAEFCNSYSKDRGPWIVKPVASSRGRGVYLINNPNQISLEENILVSRYINNPLLIDDFKFDVRLYVLVTSYDPLVIYLYEEGLARFATVRYDQGAKNIRNQFMHLTNYSVNKKSGDYVSCDDPEVEDYGNKWSMSAMLRYLKQEGRDTTALMAHVEDLIIKTIISAELAIATACKTFVPHRSSCFELYGFDVLIDSTLKPWLLEVNLSPSLACDAPLDLKIKASMISDMFTVVGFVCQDPAQRASTRPIYPTFESSRRNPFQKPQRCRPLSASDAEMKNLVGSAREKGPGKLGGSVLGLSMEEIKVLRRVKEENDRRGGFIRIFPTSETWEIYGSYLEHKTSMNYMLATRLFQDRMTADGAPELKIESLNSKAKLHAALYERKLLSLEVRKRRRRSSRLRAMRPKYPVITQPAEMNVKTETESEEEEEVALDNEDEEQEASQEESAGFLRENQAKYTPSLTALVENTPKENSMKVREWNNKGGHCCKLETQELEPKFNLMQILQDNGNLSKMQARIAFSAYLQHVQIRLMKDSGGQTFSASWAAKEDEQMELVVRFLKRASNNLQHSLRMVLPSRRLALLERRRILAHQLGDFIIVYNKETEQMAEKKSKKKVEEEEEDGVNMENFQEFIRQASEAELEEVLTFYTQKNKSASVFLGTHSKISKNNNNYSDSGAKGDHPETIMEEVKIKPPKQQQTTEIHSDKLSRFTTSAEKEAKLVYSNSSSGPTATLQKIPNTHLSSVTTSDLSPGPCHHSSLSQIPSAIPSMPHQPTILLNTVSASASPCLHPGAQNIPSPTGLPRCRSGSHTIGPFSSFQSAAHIYSQKLSRPSSAKAGSCYLNKHHSGIAKTQKEGEDASLYSKRYNQSMVTAELQRLAEKQAARQYSPSSHINLLTQQVTNLNLATGIINRSSASAPPTLRPIISPSGPTWSTQSDPQAPENHSSSPGSRSLQTGGFAWEGEVENNVYSQATGVVPQHKYHPTAGSYQLQFALQQLEQQKLQSRQLLDQSRARHQAIFGSQTLPNSNLWTMNNGAGCRISSATASGQKPTTLPQKVVPPPSSCASLVPKPPPNHEQVLRRATSQKASKGSSAEGQLNGLQSSLNPAASVPITSSTDPAHTKI
For B1, the “co-immunoprecipitation of GRIP1 with Flag-STAMP by anti-Flag antibody” value with GRIP1 is listed as “co-immunoprecipitated”.

B2: 6-6CL1: STAMP fragment amino acids 623-834, coactivator interaction domain (CID) (protein)
chain: ENTPKENSMKVREWNNKGGHCCKLETQELEPKFNLMQILQDNGNLSKMQARIAFSAYLQHVQIRLMKDSGGQTFSASWAAKEDEQMELVVRFLKRASNNLQHSLRMVLPSRRLALLERRRILAHQLGDFIIVYNKETEQMAEKKSKKKVEEEEEDGVNMENFQEFIRQASEAELEEVLTFYTQKNKSASVFLGTHSKISKNNNNYSDSGAKG
For B2, in the assay with CBP, the “association with CBP” value is “negligible association”.

B3: STAMP834C: STAMP fragment amino acids 834-1277, receptor interaction domain (RID) (protein)
chain: GDHPETIMEEVKIKPPKQQQTTEIHSDKLSRFTTSAEKEAKLVYSNSSSGPTATLQKIPNTHLSSVTTSDLSPGPCHHSSLSQIPSAIPSMPHQPTILLNTVSASASPCLHPGAQNIPSPTGLPRCRSGSHTIGPFSSFQSAAHIYSQKLSRPSSAKAGSCYLNKHHSGIAKTQKEGEDASLYSKRYNQSMVTAELQRLAEKQAARQYSPSSHINLLTQQVTNLNLATGIINRSSASAPPTLRPIISPSGPTWSTQSDPQAPENHSSSPGSRSLQTGGFAWEGEVENNVYSQATGVVPQHKYHPTAGSYQLQFALQQLEQQKLQSRQLLDQSRARHQAIFGSQTLPNSNLWTMNNGAGCRISSATASGQKPTTLPQKVVPPPSSCASLVPKPPPNHEQVLRRATSQKASKGSSAEGQLNGLQSSLNPAASVPITSSTDPAHTKI
Regarding B3, the “interaction with estrogen receptor α” value with ERα was “lack of interaction”.

The values above are taken from patent US7867500B2, “Cofactor that modulates steroid receptor activities” (The United States of America as represented by the …, priority 2004, dated 2011).
